Experimental findings from FireProtDB (doi:10.1021/bi010636i) are described below.

The conditions of the series: pH 7, CD, transition: 2, reversible: yes, whole UniProt chain shown; for denaturant midpoint (higher = more stable): 25 °C, GdnHCl; for Tm: Thermal.
[1] abbreviates: Rattus norvegicus, potassium phosphate buffer.

Values joined by “and” are separate entries in the source; they are usually repeats but may differ in a detail not shown here. Equal entries are not always repeated.

B1: Cytochrome b5 wild type, P00171 (protein)
chain: MAEESSKAVKYYTLEEIQKHNNSKSTWLILHYKVYDLTKFLEEHPGGEEVLREQAGGDATENFEDVGHSTDARELSKTFIIGELHPDDRSKITKPSESIITTIDSNPSWWTNWLIPAISALFVALIYHLYTSEN
With B1, under “Bos taurus, MOPS buffer”, the “denaturant midpoint (higher = more stable)” value was 2.99 M and 3.05 M; the Tm (in general, the temperature at the midpoint of the melting transition) is 73.1 °C.

B2: Cytochrome b5 type B wild type, P04166 (protein)
chain: MATPEASGSGRNGQGSDPAVTYYRLEEVAKRNTAEETWMVIHGRVYDITRFLSEHPGGEEVLLEQAGADATESFEDVGHSPDAREMLKQYYIGDVHPNDLKPKDGDKDPSKNNSCQSSWAYWIVPIVGAILIGFLYRHFWADSKSS
B2: under setting [1], the “denaturant midpoint (higher = more stable)” value is 4.09 M and 4.03 M; the Tm is 87 °C.
